Measured values published in the supplement of paper PMC7125110.
± gives the standard error. For some assays here: Fewer inactive variants are shown than the library holds.

B1: glmS ribozyme (parent)
chain: AUAAAAGCGCCAGAACUACAGAAAUGUAGUUGACGAGGAGGAGGUUUAUCGAAUUUUCGGCGGAUGCCUCCAAA

Assays:
Settings in all cases: with glucosamine-6-phosphate
glucosamine-6-phosphate [1] = variants of: B1; test: self-cleavage kobs at 40 uM GlcN6P; higher = faster cleavage; RNA array
Outline: (§1)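 Barcoded ribozyme variants were transcribed in situ on sequenced MiSeq chips by E. coli RNA polymerase. At 37 °C, a hybridised Cy3 probe tracked them while glucosamine-6-phosphate (40 μM to 10 mM) in HEPES/KCl/Mg(OAc)2 buffer flowed in and tiles were imaged over ~14 h. Per-tile medians of signals normalised to baseline and to non-cleaving reference variants were fit to one- or two-exponential decays, giving kobs. kcat and KM came from weighted Michaelis–Menten fits across concentrations.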

glucosamine-6-phosphate [2] = variants of: B1; test: self-cleavage kobs at 640 uM GlcN6P; higher = faster cleavage; RNA array
Outline: as §1

glucosamine-6-phosphate [3] = variants of: B1; test: self-cleavage kobs at 2500 uM GlcN6P; higher = faster cleavage; RNA array
Outline: as §1

glucosamine-6-phosphate [4] = variants of: B1; test: self-cleavage kobs at 10000 uM GlcN6P; higher = faster cleavage; RNA array
Outline: as §1

glucosamine-6-phosphate [5] = variants of: B1; test: KM; higher = weaker cofactor use; RNA array
Outline: as §1

glucosamine-6-phosphate [6] = variants of: B1; test: self-cleavage kobs at 160 uM GlcN6P; higher = faster cleavage; RNA array
Outline: as §1

Variant	self-cleavage kobs at 40 uM GlcN6P (glucosamine-6-phosphate [1])	self-cleavage kobs at 640 uM GlcN6P (glucosamine-6-phosphate [2])	self-cleavage kobs at 2500 uM GlcN6P (glucosamine-6-phosphate [3])	self-cleavage kobs at 10000 uM GlcN6P (glucosamine-6-phosphate [4])	KM (glucosamine-6-phosphate [5])	self-cleavage kobs at 160 uM GlcN6P (glucosamine-6-phosphate [6])
A6G C11U A33U G60U	< 1e-05 s⁻¹	< 1e-05 s⁻¹	< 1e-05 s⁻¹	< 1e-05 s⁻¹		
A42G A53G	0.00144 ± 0.00031 s⁻¹	0.00893 ± 0.0025 s⁻¹	0.0414 ± 0.018 s⁻¹	0.00932 ± 0.0024 s⁻¹	248 ± 95 µM	0.00422 ± 0.0013 s⁻¹
A6C A52C	< 1e-05 s⁻¹	< 1e-05 s⁻¹	< 1e-05 s⁻¹	< 1e-05 s⁻¹		< 1e-05 s⁻¹
A6C A12G	< 1e-05 s⁻¹	< 1e-05 s⁻¹				< 1e-05 s⁻¹
A6C A36U G37C G60U	< 1e-05 s⁻¹					
A6G A15U C16G A53G C61G G63A	< 1e-05 s⁻¹	< 1e-05 s⁻¹	< 1e-05 s⁻¹			< 1e-05 s⁻¹
A6C A52U U54A U55C	< 1e-05 s⁻¹	< 1e-05 s⁻¹		< 1e-05 s⁻¹		
A6G A36U C50U	< 1e-05 s⁻¹	< 1e-05 s⁻¹		< 1e-05 s⁻¹		
A6C C50A	< 1e-05 s⁻¹			< 1e-05 s⁻¹		
A6G A33G A48G A64U	< 1e-05 s⁻¹			< 1e-05 s⁻¹		
A6G C50A U65G	< 1e-05 s⁻¹					
G41C U69C					84.1 ± 23 µM	
A6C C8G G51A C71U	< 1e-05 s⁻¹			< 1e-05 s⁻¹		
A6G C8G C10G A52U G60A	< 1e-05 s⁻¹					
A6C C34U	< 1e-05 s⁻¹	< 1e-05 s⁻¹	< 1e-05 s⁻¹	< 1e-05 s⁻¹		< 1e-05 s⁻¹
A6C G51U U56A	< 1e-05 s⁻¹					
A1C	0.00111 ± 0.00028 s⁻¹	0.0192 ± 0.0042 s⁻¹	0.0128 ± 0.0042 s⁻¹	0.0709 ± 0.033 s⁻¹		0.00363 ± 0.00095 s⁻¹
A1G	0.00124 ± 0.00034 s⁻¹			0.0405 ± 0.014 s⁻¹		
A6C G13U C58A A64C	< 1e-05 s⁻¹	< 1e-05 s⁻¹	< 1e-05 s⁻¹			< 1e-05 s⁻¹
A6G C58A C67G	0.000658 ± 0.00021 s⁻¹			0.000123 ± 3.5e-05 s⁻¹		
A6C A15U A36C G43A U46G C50U A53U C61U	< 1e-05 s⁻¹	< 1e-05 s⁻¹	< 1e-05 s⁻¹	< 1e-05 s⁻¹		
A6G A12G G66U	< 1e-05 s⁻¹					
A6G A52G	< 1e-05 s⁻¹					< 1e-05 s⁻¹
G44C C50A					105 ± 18 µM	

Variant	self-cleavage kobs at 40 uM GlcN6P (glucosamine-6-phosphate [1])	self-cleavage kobs at 640 uM GlcN6P (glucosamine-6-phosphate [2])	self-cleavage kobs at 2500 uM GlcN6P (glucosamine-6-phosphate [3])	self-cleavage kobs at 10000 uM GlcN6P (glucosamine-6-phosphate [4])	KM (glucosamine-6-phosphate [5])	self-cleavage kobs at 160 uM GlcN6P (glucosamine-6-phosphate [6])
A6C G51A	< 1e-05 s⁻¹		< 1e-05 s⁻¹	< 1e-05 s⁻¹		< 1e-05 s⁻¹
A6C G40U	< 1e-05 s⁻¹	< 1e-05 s⁻¹				< 1e-05 s⁻¹
A6C G44U G51A	< 1e-05 s⁻¹			< 1e-05 s⁻¹		
A39G U55G	0.0012 ± 0.00016 s⁻¹	0.00499 ± 0.00097 s⁻¹	0.00613 ± 0.0016 s⁻¹	0.0177 ± 0.0048 s⁻¹	212 ± 100 µM	0.00211 ± 0.0006 s⁻¹
A6G A15C C16U	< 1e-05 s⁻¹			4.37e-05 ± 1.5e-05 s⁻¹		
G59A G60C					30.9 ± 14 µM	
A6C C8U C68A C70A	< 1e-05 s⁻¹					
A6C G60A	< 1e-05 s⁻¹	< 1e-05 s⁻¹	< 1e-05 s⁻¹			
A6G C16U G32C G41U C68U	< 1e-05 s⁻¹	< 1e-05 s⁻¹	< 1e-05 s⁻¹	< 1e-05 s⁻¹		
A6C G63C	< 1e-05 s⁻¹	< 1e-05 s⁻¹		< 1e-05 s⁻¹		
A6C C16A G29A G63C C67A	< 1e-05 s⁻¹					
A42G U55C	0.000832 ± 0.00014 s⁻¹	0.0147 ± 0.0051 s⁻¹	0.0354 ± 0.016 s⁻¹	0.0147 ± 0.0029 s⁻¹	895 ± 430 µM	0.00147 ± 0.00063 s⁻¹
A6C G29C A36U C61U	< 1e-05 s⁻¹		< 1e-05 s⁻¹	< 1e-05 s⁻¹		
A6G A42U A64G	< 1e-05 s⁻¹	< 1e-05 s⁻¹	< 1e-05 s⁻¹	< 1e-05 s⁻¹		
A6G C8G A33G A48U C58U A64U C70A	3.84e-05 ± 1.7e-05 s⁻¹			0.000104 ± 3e-05 s⁻¹		
A6G C50G C58G	0.000111 ± 2.7e-05 s⁻¹					0.000451 ± 0.0001 s⁻¹
A6C G62A	< 1e-05 s⁻¹	< 1e-05 s⁻¹				< 1e-05 s⁻¹
A6C G41A	< 1e-05 s⁻¹	< 1e-05 s⁻¹	< 1e-05 s⁻¹			
A6G A48C	< 1e-05 s⁻¹	< 1e-05 s⁻¹		< 1e-05 s⁻¹		
A6C G32C U49G	< 1e-05 s⁻¹			< 1e-05 s⁻¹		
U2C	0.000889 ± 0.00014 s⁻¹	0.0102 ± 0.0023 s⁻¹	0.00926 ± 0.003 s⁻¹	0.0584 ± 0.014 s⁻¹		
A6C A14U G41U C70U	< 1e-05 s⁻¹					
A6C G41C G43A A48G	< 1e-05 s⁻¹					
U2A A3U G32A	7.12e-05 ± 1.6e-05 s⁻¹		0.0028 ± 0.00085 s⁻¹			
